# Laboratory results from patent US20240342298A1 (IMMUNWORK, published 2024).
# Legend:
# [1] = molecular target: T1, human CD38 (human, UniProt P28907 1-300); experiment: flow cytometry on live U266-CD38+ cells, PE anti-human IgG-Fc detection
# T1 construct: whole, on cells; also called full-length human CD38
# [2] = molecular target: T1, human CD38; experiment: flow cytometry on live H929 cells, PE anti-human IgG-Fc detection
binder,measurement,setting,value
"daratumumab (antibody, V domains shown) VH: EVQLLESGGGLVQPGGSLRLSCAVSGFTFNSFAMSWVRQAPGKGLEWVSAISGSGGGTYYADSVKGRFTISRDNSKNTLYLQMNSLRAEDTAVYFCAKDKILWFGEPVFDYWGQGTLVTVSS VL: not shown",EC50,[1],130 pM
same,EC50,[2],1020 pM
